From the supplement of paper PMC10899765 come the findings set out here.

Common to all, as to conditions: 20 nM; 72 h
For data set [1], the system named is MCF10A. In words: percent viability (nuclei count relative to siNT); higher = more viable cells. The method, then:
(§1)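 After 72 h, cells were fixed and stained with Hoechst and anti-fibrillarin, and nucleoli per nucleus were counted with CellProfiler. Values are plate-adjusted percent effect for the one-nucleolus and 5+ nucleoli phenotypes, normalised to siNT (0%) and to the positive controls siNOL11 or siKIF11 (100%), as the mean of biological triplicates. Percent viability is the nuclei count relative to siNT.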

The subject of data set [2] is MCF10A. In words: 5+ nucleoli phenotype percent effect (relative to siNT 0% and siKIF11 100%); higher = more cells with five or more nucleoli. How it is done:
as §1

For data set [3], the system named is MCF10A. In words: one-nucleolus phenotype percent effect (relative to siNT 0% and siNOL11 100%); higher = more cells with one nucleolus (ribosome biogenesis inhibition). The method, then:
as §1

For the sequence CAGUAACAAAGAUUCAUCCUUGU [hsa-miR-802], the percent viability in data set [1] was determined as 81.8%. In addition, in data set [2], the “5+ nucleoli phenotype percent effect” value is -6.89%. The “one-nucleolus phenotype percent effect” value in data set [3] is -6.9%.

CUAUACAACUUACUACUUUCCC [hsa-miR-98-3p]: the percent viability in data set [1] was 59.1%. For the same sequence, the “5+ nucleoli phenotype percent effect” value in data set [2] was found to be 45.5%. Moreover, in data set [3], the “one-nucleolus phenotype percent effect” value was -31.6%.

Consider “CUUAGCAGGUUGUAUUAUCAUU [hsa-miR-374b-3p]”, for which the percent viability in data set [1] is 67.5%. Besides, in data set [2], the “5+ nucleoli phenotype percent effect” value is -9.55%. In addition, the “one-nucleolus phenotype percent effect” value in data set [3] was -6.79%.

Take “UUGGGGAUUGGGUCAGGCCAGU [hsa-miR-6857-5p]”: the percent viability in data set [1] was 6.01%. Further, the “5+ nucleoli phenotype percent effect” value in data set [2] was -18%. Besides, the “one-nucleolus phenotype percent effect” value in data set [3] worked out at 29.9%.

As to UCACUGUUCAGACAGGCGGA [hsa-miR-1208], the percent viability in data set [1] was 112%. In addition, the “5+ nucleoli phenotype percent effect” value in data set [2] is 20.6%. The “one-nucleolus phenotype percent effect” value in data set [3] was -21.6%.

Consider “CAAGGCCAAAGGAAGAGAACAG [hsa-miR-4753-5p]”, for which the percent viability in data set [1] came to 31.8%. In addition, the “5+ nucleoli phenotype percent effect” value in data set [2] was -19.1%. In data set [3], the “one-nucleolus phenotype percent effect” value was found to be 2.71%.

With AAGGUAUUGUUCAGACUUAUGA [hsa-miR-4678], the percent viability in data set [1] was 38.9%. In data set [2], the “5+ nucleoli phenotype percent effect” value was -18%. Further, the “one-nucleolus phenotype percent effect” value in data set [3] was determined as 5.33%.

In the case of GAAAGUACAGAUCGGAUGGGU [hsa-miR-8054], in data set [1], the percent viability was 55.8%. The “5+ nucleoli phenotype percent effect” value in data set [2] came to 24.3%. For the same sequence, the “one-nucleolus phenotype percent effect” value in data set [3] is -3.34%.

As for “CUGGGAGAGGGUUGUUUACUCC [hsa-miR-30c-1-3p]”, the percent viability in data set [1] is 13.1%. Also, in data set [2], the “5+ nucleoli phenotype percent effect” value is -21.9%. The “one-nucleolus phenotype percent effect” value in data set [3] amounted to 23.4%.

Take “CAAAAGCAAUCGCGGUUUUUGC [hsa-miR-548e-5p]”: the percent viability in data set [1] amounted to 60.8%. For the same sequence, in data set [2], the “5+ nucleoli phenotype percent effect” value is 44%. The “one-nucleolus phenotype percent effect” value in data set [3] is -2.62%.

With UGCUGAGGUCCGGGCUGUGCC [hsa-miR-7160-5p], in data set [1], the percent viability turned out to be 16.8%. Further, the “5+ nucleoli phenotype percent effect” value in data set [2] is -22.1%. In addition, the “one-nucleolus phenotype percent effect” value in data set [3] was 47.5%.

Consider “AGCCAGGCUCUGAAGGGAAAGU [hsa-miR-4755-3p]”, for which the percent viability in data set [1] is 59.3%. Besides, the “5+ nucleoli phenotype percent effect” value in data set [2] was 3.33%. Moreover, the “one-nucleolus phenotype percent effect” value in data set [3] worked out at 7.85%.

On to “UUGUGUGAGUACAGAGAGCAUC [hsa-miR-6818-5p]”, for which the percent viability in data set [1] worked out at 17.1%. Moreover, the “5+ nucleoli phenotype percent effect” value in data set [2] was -31.6%. Further, in data set [3], the “one-nucleolus phenotype percent effect” value came to 66.1%.

As for “ACUGCCCUAAGUGCUCCUUCUGG [hsa-miR-18a-3p]”, the percent viability in data set [1] turned out to be 58.7%. Moreover, the “5+ nucleoli phenotype percent effect” value in data set [2] came to 4.11%. For the same sequence, in data set [3], the “one-nucleolus phenotype percent effect” value is -2.39%.

For “CAAAAAUCUCAAUUACUUUUGC [hsa-miR-548c-3p]”, the percent viability in data set [1] amounted to 84.4%. Also, the “5+ nucleoli phenotype percent effect” value in data set [2] was 42.3%. The “one-nucleolus phenotype percent effect” value in data set [3] is -9.26%.

Take CCUCCUGAUGAUUCUUCUUC [hsa-miR-3653-5p]: the percent viability in data set [1] turned out to be 159%. For the same sequence, the “5+ nucleoli phenotype percent effect” value in data set [2] is 32.7%. The “one-nucleolus phenotype percent effect” value in data set [3] is -22.7%.

As for UUUUAAGGACACUGAGGGAUC [hsa-miR-7856-5p], the percent viability in data set [1] came out at 70.5%. In data set [2], the “5+ nucleoli phenotype percent effect” value turned out to be 57.8%. Moreover, the “one-nucleolus phenotype percent effect” value in data set [3] is -30.1%.

On to UACAGUAUAGAUGAUGUACU [hsa-miR-144-3p], for which the percent viability in data set [1] worked out at 119%. Also, the “5+ nucleoli phenotype percent effect” value in data set [2] is -8.45%. For the same sequence, in data set [3], the “one-nucleolus phenotype percent effect” value was -2.3%.

For “CUCUCUGGCCGUCUACCUUCCA [hsa-miR-3191-5p]”, the percent viability in data set [1] amounted to 31.4%. The “5+ nucleoli phenotype percent effect” value in data set [2] was -62.4%. Besides, the “one-nucleolus phenotype percent effect” value in data set [3] was determined as 46.1%.

Consider GUUAGGGCCAACAUCUCUUGG [hsa-miR-2909], for which the percent viability in data set [1] is 48.3%. Further, the “5+ nucleoli phenotype percent effect” value in data set [2] was found to be 5.52%. Further, the “one-nucleolus phenotype percent effect” value in data set [3] was -6.14%.

Take UGAGGUGACCGCAGAUGGGAA [hsa-miR-7854-3p]: the percent viability in data set [1] turned out to be 14.8%. The “5+ nucleoli phenotype percent effect” value in data set [2] is -6.86%. Moreover, the “one-nucleolus phenotype percent effect” value in data set [3] was 29.8%.

Take UGAGGGAGGAGACUGCA [hsa-miR-4419a]: the percent viability in data set [1] was 7.9%. In addition, in data set [2], the “5+ nucleoli phenotype percent effect” value is -18.8%. The “one-nucleolus phenotype percent effect” value in data set [3] was found to be 18.6%.

With GGUGAGGCUAGCUGGUG [hsa-miR-4316], the percent viability in data set [1] amounted to 41.7%. In data set [2], the “5+ nucleoli phenotype percent effect” value is -8.12%. Also, the “one-nucleolus phenotype percent effect” value in data set [3] was 13.5%.

As to “UGAGAAGGCACAGCUUGCACGUGA [hsa-miR-6770-5p]”, the percent viability in data set [1] amounted to 36.9%. Moreover, the “5+ nucleoli phenotype percent effect” value in data set [2] was -3.61%. For the same sequence, the “one-nucleolus phenotype percent effect” value in data set [3] came to 34.3%.
